The values that follow are results of earlier work, collected in PMC7139808.

Data set [1] addresses hemoglobin (Homo sapiens) (UniProt P69905).
For data set [2], the target named is hemoglobin (Mus musculus) (UniProt P01942).
Sequence of UniProt P01942 (P01942 2-142, chain 1 of 2): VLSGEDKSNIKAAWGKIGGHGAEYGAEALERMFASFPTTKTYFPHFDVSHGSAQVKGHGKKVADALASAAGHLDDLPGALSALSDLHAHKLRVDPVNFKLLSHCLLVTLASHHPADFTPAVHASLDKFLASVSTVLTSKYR
Sequence of UniProt P01942 (P02088 2-147, chain 2 of 2, further chain): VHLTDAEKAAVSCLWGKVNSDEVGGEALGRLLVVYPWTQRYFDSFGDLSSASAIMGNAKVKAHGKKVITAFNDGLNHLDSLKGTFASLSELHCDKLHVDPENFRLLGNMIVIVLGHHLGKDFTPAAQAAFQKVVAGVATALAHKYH

Sequence of UniProt P69905 (P69905 2-142, chain 1 of 2): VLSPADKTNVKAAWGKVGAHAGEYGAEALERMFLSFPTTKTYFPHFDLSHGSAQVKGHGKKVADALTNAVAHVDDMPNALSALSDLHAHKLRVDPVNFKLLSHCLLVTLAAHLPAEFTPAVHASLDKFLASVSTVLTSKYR
Sequence of UniProt P69905 (P68871 2-147, chain 2 of 2, further chain): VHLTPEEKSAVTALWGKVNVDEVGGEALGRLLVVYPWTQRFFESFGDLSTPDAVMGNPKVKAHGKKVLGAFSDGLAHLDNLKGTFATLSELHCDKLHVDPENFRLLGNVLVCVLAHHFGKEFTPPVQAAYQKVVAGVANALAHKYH

As for IsdB (from UniProt A7X146), the results for the Kd in data set [1] and in data set [2] were 55 nM and 980 nM, respectively.
